According to patent publication US20100016275A1, “NOVEL COMPOUND 395” (priority 2008, published 2010):

Target: T1, human CXCR2 receptor (Homo sapiens, UniProt P25025)
T1 construct: expressed in transfected cells; host or cells: HEK293, stably transfected geneticin-resistant clones, vector RcCMV; membranes purified by sucrose gradient
T1 sequence (P25025 1-360): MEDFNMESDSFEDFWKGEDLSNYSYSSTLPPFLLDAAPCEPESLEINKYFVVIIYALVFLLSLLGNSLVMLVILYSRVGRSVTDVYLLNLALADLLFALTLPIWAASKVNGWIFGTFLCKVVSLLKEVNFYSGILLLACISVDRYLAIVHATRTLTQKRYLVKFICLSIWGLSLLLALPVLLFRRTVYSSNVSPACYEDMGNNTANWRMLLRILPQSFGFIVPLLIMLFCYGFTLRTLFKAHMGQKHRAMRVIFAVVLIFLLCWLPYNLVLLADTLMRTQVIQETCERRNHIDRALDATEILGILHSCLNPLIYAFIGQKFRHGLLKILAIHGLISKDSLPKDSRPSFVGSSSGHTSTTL
Test: Potency (pIC50) ligand binding assay, inhibition of [125I]IL-8 binding
Settings: human CXCR2 membranes; read-out: Kd (equilibrium dissociation constant) determined for IL-8
Experimental: Potency (pIC50)—Ligand Binding Assay
The potency of antagonists at the human CXCR2 receptor was determined in vitro by quantifying their ability to inhibit specific binding of the CXCR2 radioligand, [^125I]interleukin-8 (IL-8), from membranes of HEK293 cells transfected with the human recombinant CXCR2 receptor.
Commercially sourced materials were obtained as follows: U-bottomed 96-well plates (3799) and 225 cm^2 vented cap culture flasks (3001) from Costar, Corning, Kent, UK. Multiscreen filter plates (0.45 μm; MAHV N45 50), vacuum manifold and pump (XF54 230 50) from Millipore, Watford, UK. N-[2-hydroxyethyl]piperazine-N′-[2ethanesulphonic acid] (HEPES; H-3375), ethylene diamine-tetraacetic acid (EDTA; E1644), magnesium chloride (M-9272), gelatin (G9382), dithiothreitol (DTT; D06052), sodium chloride (S3160/63), sodium hydroxide (B6506), bacitracin (B0125), inactivated foetal calf serum (FCS; CR0848) and DMSO Fluka Chemika (41648) from Sigma, Poole, UK. MicroScint-O (6013611) Packard BioScience, Pangboume, UK. Complete protease inhibitor cocktail tablets (1836145) from Boehringer s Mannheim, GmbH, Germany. Human recombinant [^125I]IL-8 74 TBq/mmol, 0.712 MBq/ml (IM249) from Amersham, Horsham UK. All other tissue culture reagents were purchased from Invitrogen, Paisley, Scotland, UK. All other chemical reagents were analytical grade from Fisher Scientific, Loughborough, UK
HEPES-buffered salt solution pH 7.4 containing HEPES (10 mM), potassium chloride (2.7 mM), sodium chloride (137 mM), potassium hydrogen phosphate (0.4 mM), calcium chloride (1.8 mM), magnesium chloride (1 mM), gelatin (0.1% (w/v)) and bacitracin (100 μg/ml).
HEPES-buffered Tyrode's solution pH 7.4 containing HEPES (10 mM), potassium chloride (2.7 mM), sodium chloride (137 mM), potassium hydrogen phosphate (0.4 mM), glucose (11 mM).
Hypotonic buffer: 3:1 mix of water: HEPES-buffered Tyrode's solution.
HEK293 cells were transfected with human CXCR2 (EMBL L19593) cDNA, previously cloned into the eukaryotic expression vector RcCMV. Cloned cell-lines were generated from stably-transfected geneticin-resistant populations. Cells were routinely grown to approximately 80% confluence in DMEM medium containing 10% (v/v) foetal calf serum and glutamine (2 mM) in a humidified incubator at 37° C., 5% CO2. Cells were harvested from flasks using Accutase™ at 37° C. for 3 to 5 minutes and resuspended on ice in hypotonic buffer at a density of 2×10^7 cells/mL. Membranes were prepared on ice by homogenisaton using a polytron tissue homogenizer set at 22000 rpm. The membrane fraction was purified by sucrose gradient centrifugation where homogenised cells were layered onto 41% (w/v) sucrose solution then centrifuged at 140000 g for 1 hour at 4° C. The membrane fraction was harvested at the interface, diluted 4-fold with HEPES-buffered Tyrode's solution and centrifuged at 100000 g for 20 minutes at 4° C. The membrane pellet was re-suspended at 1×10^8 cell equivalents/mL in HEPES-buffered Tyrode's solution and subsequently stored in aliquots at −80° C. All buffers used for membrane preparation and storage were made in the presence of 1 mM DTT and Complete Protease Inhibitor™ cocktail tablets, made up to manufacturers instructions.
Assays were performed in HEPES-buffered salt solution in 96-well plates. [^125I]IL-8 was used at a final concentration of 0.06 nM, pre-diluted from a 9.6 nM stock. The final DMSO concentration in the assay was 1% (v/v). Test compounds were prepared by serial dilution in DMSO followed by a ten-fold dilution into HEPES-buffered salt solution to give a working solution containing compound and 10% DMSO. The control for total binding (B0) of [^125I]IL-8 was determined in the absence of compound. The control for non-specific binding (NSB) was determined by measuring [^125I]IL-8 binding in the presence of (1R)-5-[[(3 -chloro-2-fluorophenyl)methyl]thio]-7-[[2-hydroxy-1-methylethyl]amino]thiazolo[4,5-d]pyrimidin-2(3H)-one dihydrate, sodium salt at 1 μM final concentration. […]

IL-8: interleukin-8, CXCR2 ligand, used as the human recombinant [125I] radioligand
Kd: 1.2 nM
